# Measurements reported in PMC2774266, “Misguided Transcriptional Elongation Causes Mixed Lineage Leukemia” (PLoS Biology, 2009).
# Molecular target: endogenous CDK9 (cyclin dependent kinase 9, kinase of pTEFb) (human (endogenous in HEK293T, SEM and …, UniProt P50750 1-372))
# Assay: cell-based or functional assay
# Chain of endogenous CDK9 (cyclin dependent kinase 9, kinase of pTEFb) (human (P50750 whole entry): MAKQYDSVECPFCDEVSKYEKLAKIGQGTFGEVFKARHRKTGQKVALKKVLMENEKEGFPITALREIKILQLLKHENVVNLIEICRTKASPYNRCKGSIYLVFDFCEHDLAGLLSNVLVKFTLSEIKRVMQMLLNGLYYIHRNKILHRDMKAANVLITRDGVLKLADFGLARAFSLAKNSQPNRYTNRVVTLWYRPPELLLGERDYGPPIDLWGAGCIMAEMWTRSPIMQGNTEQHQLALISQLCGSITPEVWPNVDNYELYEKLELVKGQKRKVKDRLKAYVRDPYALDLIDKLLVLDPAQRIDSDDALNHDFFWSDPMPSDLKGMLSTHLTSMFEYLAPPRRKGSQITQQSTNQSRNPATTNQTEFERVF
binder,measurement,value
"ENL (eleven nineteen leukemia protein), full-length two-hybrid fusion (natural protein, human, UniProt Q03111 1-559, looked up) MDNQCTVQVRLELGHRAQLRKKPTTEGFTHDWMVFVRGPEQCDIQHFVEKVVFWLHDSFPKPRRVCKEPPYKVEESGYAGFIMPIEVHFKNKEEPRKVCFTYDLFLNLEGNPPVNHLRCEKLTFNNPTTEFRYKLLRAGGVMVMPEGADTVSRPSPDYPMLPTIPLSAFSDPKKTKPSHGSKDANKESSKTSKPHKVTKEHRERPRKDSESKSSSKELEREQAKSSKDTSRKLGEGRLPKEEKAPPPKAAFKEPKMALKETKLESTSPKGGPPPPPPPPPRASSKRPATADSPKPSAKKQKKSSSKGSRSAPGTSPRTSSSSSFSDKKPAKDKSSTRGEKVKAESEPREAKKALEVEESNSEDEASFKSESAQSSPSNSSSSSDSSSDSDFEPSQNHSQGPLRSMVEDLQSEESDEDDSSSGEEAAGKTNPGRDSRLSFSDSESDNSADSSLPSREPPPPQKPPPPNSKVSGRRSPESCSKPEKILKKGTYDKAYTDELVELHRRLMALRERNVLQQIVNLIEETGHFNVTNTTFDFDLFSLDETTVRKLQSCLEAVAT","luciferase in the RNA tethering assay (TAR/IIb reporter) of Rev-ENL in 293T cells, relative to Rev alone; contact with pTEFb indirect",~6 fold
